# Measurements taken from the RNAGym collection of RNA variant scans (doi:10.1073/pnas.2313332121).
# This sample holds only a part of the variants without activity.
# B1: TPR 5TU (parent)
# chain: GGAUCUUCUCGAUCUAACAAAAAAGACAAAUCUGCCACAAAGCUUGAGAGCAUCUUCGGAUGCAGAGGCGGCAGCCUUCGGUGGCGCGAUAGCGCCAACGUUCUCAACUAUGACACGCAAAACGCGUGCUCCGUUGAAUGGAGUUUAUCAUG
# Variants of: B1
# Test: polymerase ribozyme fitness, log enrichment relative to wild type (log ratio); higher = more active; in vitro selection for triplet polymerase activity
# Summary of the method: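 Mutant libraries were PCR-built and transcribed for each subunit of a heterodimeric triplet polymerase ribozyme and selected for one round in triplicate at −7 °C, frozen, before gel excision of extended constructs and streptavidin-bead capture. Input and output libraries were Illumina-sequenced, keeping genotypes with ≥10 input reads and ≥1 read per output. Fitness is a logarithmic ratio of genotype to wild-type enrichment, in base 2, using inverse-variance-weighted replicate averages.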
row,Variant,polymerase ribozyme fitness (log ratio)
1,GGAUCUUCUCGAUCUAACAAAAAAGACAAAUCUGCCACAAAGCUUGAGAGCAUCUUCGGAUGCAGAGGCGGCAGCCUUCGGUGGCGCGAUAGCGCUAACGGUCUCAACUAUGACACGCAAAACGCGUGCUCCGUUGAAUGGAGUUUAUCAUG [C96U U101G],0.195
2,GGAUCUUCUCGAUCUAACAAAAAAGACAAAUCUGCCACAAAGCUUGAGAGCAUCUUCGGAUGCAGAGGCGGCAGCCUUCGGUGGCGCGAUAGCGCUAACGUUCUCAACUAUGACACGUAAAACGCGUGCUCCGUUGAAUGGAGUUUAUCAUG [C96U C118U],-0.211
3,GGAUCUUCUCGAUCUAACAAAAAAGACAAAUCUGCCACAAAGCUUGAGAGCAUCUUCGGAUGCAGAGGCGGCAGCCUUCGGUGGCGCGAUAGCGCUAACGUUCUCAACUAUGACGCGCAAAACGCGUGCUCCGUUGAAUGGAGUUUAACAUG [C96U A115G U148A],-3.95
4,GGAUCUUCUCGAUCUAACAAAAAAGACAAAUCUGCCACAAAGCUUGAGAGCAUCUUCGGAUGCAGAGGCGGCAGCCUUCGGUGGCGCGAUAGCGCUAACGUUCUCAACUAUGACACGCAAAACGCGUGCUCCGUUGAAUGUAGUUUAUCAUG [C96U G141U],-0.301
5,GGAUCUUCUCGAUCUAACAAAAAAGACAAAUCUGCCACAAAGCUUGAGAGCAUCUUCGGAUGCAGAGGCGGCAGCCUUCGGUGGCGCGAUAGCGCUAACGUGCUCAACUAUGACACGCAAAACGCGUGCUCCGUUGAAUGCAGUUUAUCAUG [C96U U102G G141C],-4.12
6,GGAUCUUCUCGAUCUAACAAAAAAGACAAAUCUGCCACAAAGCUUGAGAGCAUCUUCGGAUGCAGAGGCGGCAGCCUUCGGUGGCGCGAUAGCGCUAACGUUCUCAACUAUGACUCGCAAAACGCGUGCUCCGUUGAAUGGAGUAUAUCAUG [C96U A115U U145A],-1.79
7,GGAUCUUCUCGAUCUAACAAAAAAGACAAAUCUGCCACAAAGCUUGAGAGCAUCUUCGGAUGCAGAGGCGGCAGCCUUCGGUGGCGCGAUAGCGCUAACGUUCUCAACUAUGACACGCAAAACGAGUGCUCCGUUGAAUGGAGGUUAUCAUG [C96U C125A U144G],-0.161
8,GGAUCUUCUCGAUCUAACAAAAAAGACAAAUCUGCCACAAAGCUUGAGAGCAUCUUCGGAUGCAGAGGCGGCAGCCUUCGGUGGCGCGAUAGCGCUAACGUUCUCAACUAUGACACGCCAAACGCGUGCUCCGUUGAAUGGAGUUUAUCAUG [C96U A119C],-1.05
9,GGAUCUUCUCGAUCUAACAAAAAAGACAAAUCUGCCACAAAGCUUGAGAGCAUCUUCGGAUGCAGAGGCGGCAGCCUUCGGUGGCGCGAUAGCGCUAACGUUCUCAACUAUGAUACGCAAAACGCGUGCUCCGUUGAAUGGAGUUUCUCAUG [C96U C114U A147C],-4.07
10,GGAUCUUCUCGAUCUAACAAAAAAGACAAAUCUGCCACAAAGCUUGAGAGCAUCUUCGGAUGCAGAGGCGGCAGCCUUCGGUGGCGCGAUAGCGCUAACGUUCUCAACUAUGACACGCAAAACGCGCGCUCCGUUGAAUGGAGUUUAUCAUG [C96U U127C],-1.34
11,GGAUCUUCUCGAUCUAACAAAAAAGACAAAUCUGCCACAAAGCUUGAGAGCAUCUUCGGAUGCAGAGGCGGCAGCCUUCGGUGGCGCGAUAGCGCCGACGUUAUCAACUAUGACACGCAAAACGCGUGCUCCGUUGAAUGGAGUUUAUCAUG [A97G C103A],-0.693
12,GGAUCUUCUCGAUCUAACAAAAAAGACAAAUCUGCCACAAAGCUUGAGAGCAUCUUCGGAUGCAGAGGCGGCAGCCUUCGGUGGCGCGAUAGCGCUAACGUUCUCAACUAUGACACGCAAAACCCGUGCUCCGUUGAAUGGAGUUUAUCAUG [C96U G124C],-0.743
13,GGAUCUUCUCGAUCUAACAAAAAAGACAAAUCUGCCACAAAGCUUGAGAGCAUCUUCGGAUGCAGAGGCGGCAGCCUUCGGUGGCGCGAUAGCGCUAACGUUCUCAACUAUGACACGCAAAACGCGUGCUCCGUUGAAUCGAGUUUAUCAUG [C96U G140C],-3.73
14,GGAUCUUCUCGAUCUAACAAAAAAGACAAAUCUGCCACAAAGCUUGAGAGCAUCUUCGGAUGCAGAGGCGGCAGCCUUCGGUGGCGCGAUAGCGCUAACGUUCUCAACUAUGACACGCAAAACGCGUGCUCCGUUGAAUUGAGUUUAUCAUG [C96U G140U],-3.33
15,GGAUCUUCUCGAUCUAACAAAAAAGACAAAUCUGCCACAAAGCUUGAGAGCAUCUUCGGAUGCAGAGGCGGCAGCCUUCGGUGGCGCGAUAGCGCUAACGUUCUCAACUAUGACACGCAAAACGCGUGCUCCGUUGCAUGGAGUUUAUCAUG [C96U A137C],-3.39
16,GGAUCUUCUCGAUCUAACAAAAAAGACAAAUCUGCCACAAAGCUUGAGAGCAUCUUCGGAUGCAGAGGCGGCAGCCUUCGGUGGCGCGAUAGCGCUAACGUUCUCAACUAUGACACGCAAAACGGGUGCUCCGUUGAAUGGAGUUUAUCAUG [C96U C125G],-0.976
17,GGAUCUUCUCGAUCUAACAAAAAAGACAAAUCUGCCACAAAGCUUGAGAGCAUCUUCGGAUGCAGAGGCGGCAGCCUUCGGUGGCGCGAUAGCGCUAACCUUCUCAACUAUGACACGCAAAACGCGUGCUCCGUUGAAUGGAGUUUAUCAUG [C96U G100C],-3.97
18,GGAUCUUCUCGAUCUAACAAAAAAGACAAAUCUGCCACAAAGCUUGAGAGCAUCUUCGGAUGCAGAGGCGGCAGCCUUCGGUGGCGCGAUAGCGCCGAUGUUCUCAACUAUGACACGCAAAACGCGUGCUCCGUUGAAUGGGGUUUAUCAUG [A97G C99U A142G],-1.1
19,GGAUCUUCUCGAUCUAACAAAAAAGACAAAUCUGCCACAAAGCUUGAGAGCAUCUUCGGAUGCAGAGGCGGCAGCCUUCGGUGGCGCGAUAGCGCUAACGUUCUCAACUAUGAUACGCAAAACGCGUGCUCCGUUGAAUGGAGUUUAUCAUG [C96U C114U],-2.66

row,Variant,polymerase ribozyme fitness (log ratio)
1,GGAUCUUCUCGAUCUAACAAAAAAGACAAAUCUGCCACAAAGCUUGAGAGCAUCUUCGGAUGCAGAGGCGGCAGCCUUCGGUGGCGCGAUAGCGCCGACGUUCUCAACUAUAACACGCAACACGCGUGCUCCGUUGAAUGUAGUUUAUCAUG [A97G G112A A121C G141U],≤ -4.2
2,GGAUCUUCUCGAUCUAACAAAAAAGACAAAUCUGCCACAAAGCUUGAGAGCAUCUUCGGAUGCAGAGGCGGCAGCCUUCGGUGGCGCGAUAGCGCUAACGUUCUCAACUAUGACUCGCAAAACCCGUGCUCCGUUGAAUGGAGUUUAUCACG [C96U A115U G124C U151C],≤ -4.2
3,GGAUCUUCUCGAUCUAACAAAAAAGACAAAUCUGCCACAAAGCUUGAGAGCAUCUUCGGAUGCAGAGGCGGCAGCCUUCGGUGGCGCGAUAGCGCUAACGUUCUGAACUAUGACACGCAAAACGCGUGCUCCGUUGAAUGGAGAUUAUCAUG [C96U C105G U144A],-1.81
4,GGAUCUUCUCGAUCUAACAAAAAAGACAAAUCUGCCACAAAGCUUGAGAGCAUCUUCGGAUGCAGAGGCGGCAGCCUUCGGUGGCGCGAUAGCGCUAACGUUCUCAACUAUGACACGCAAAACGCGUGCUCCGCUGAAUGGAGUUUAUCAUG [C96U U134C],-0.883
5,GGAUCUUCUCGAUCUAACAAAAAAGACAAAUCUGCCACAAAGCUUGAGAGCAUCUUCGGAUGCAGAGGCGGCAGCCUUCGGUGGCGCGAUAGCGCUAACGUUCUCAACUGUGAUACGCAAAACGCGUGCUCCGUUGAAUGGGGUUUAUCAUG [C96U A110G C114U A142G],-4.07
6,GGAUCUUCUCGAUCUAACAAAAAAGACAAAUCUGCCACAAAGCUUGAGAGCAUCUUCGGAUGCAGAGGCGGCAGCCUUCGGUGGCGCGAUAGCGCUAACGUUCUCAACUAUGACACGCAAAACGCGUGCUCCGUCGAAUUGAGUUUAUCAUG [C96U U135C G140U],-3.67
7,GGAUCUUCUCGAUCUAACAAAAAAGACAAAUCUGCCACAAAGCUUGAGAGCAUCUUCGGAUGCAGAGGCGGCAGCCUUCGGUGGCGCGAUAGCGCUAACGUUCUCAACUAUGACACGCAAAACGCGUUCUCCGUUGAAUGGAGUUUCUCAUG [C96U G128U A147C],-3.7
8,GGAUCUUCUCGAUCUAACAAAAAAGACAAAUCUGCCACAAAGCUUGAGAGCAUCUUCGGAUGCAGAGGCGGCAGCCUUCGGUGGCGCGAUAGCGCUAAAGUUCUCAACUAUGACACGCAAAACGCGUGCUCCGUUGAAUGGAGUUUAUCAUG [C96U C99A],-1.51
9,GGAUCUUCUCGAUCUAACAAAAAAGACAAAUCUGCCACAAAGCUUGAGAGCAUCUUCGGAUGCAGAGGCGGCAGCCUUCGGUGGCGCGAUAGCGCUAAUGUUCUCAACUAUGACACGCAAAACGCGUGCUCCGUUGAAUGGAGUUUAUCAUG [C96U C99U],-0.378
10,GGAUCUUCUCGAUCUAACAAAAAAGACAAAUCUGCCACAAAGCUUGAGAGCAUCUUCGGAUGCAGAGGCGGCAGCCUUCGGUGGCGCGAUAGCGCUAACGUUCUCAACUAUGACACGCAAAACGCGUGCUCCGUUGAAUGGAGUUUAUCCUG [C96U A150C],-3.31
11,GGAUCUUCUCGAUCUAACAAAAAAGACAAAUCUGCCACAAAGCUUGAGAGCAUCUUCGGAUGCAGAGGCGGCAGCCUUCGGUGGCGCGAUAGCGCUAACGUUCUCAACUAUGACACGCAAAACGCGUGCUCCGUUGAAUGGAGUUUAUCUUG [C96U A150U],-0.525
12,GGAUCUUCUCGAUCUAACAAAAAAGACAAAUCUGCCACAAAGCUUGAGAGCAUCUUCGGAUGCAGAGGCGGCAGCCUUCGGUGGCGCGAUAGCGCCUGCGUUCUCAACUAUGACACGCAAAACGCGUGCUCCGUUGAAUGGAGUUUAUCAUG [A97U A98G],-2.31
13,GGAUCUUCUCGAUCUAACAAAAAAGACAAAUCUGCCACAAAGCUUGAGAGCAUCUUCGGAUGCAGAGGCGGCAGCCUUCGGUGGCGCGAUAGCGCUAACGUUCUCAACUAUGACACGCAAAACGCGUUCUCCGUUGAAUGGAGUUUAUCAUG [C96U G128U],-3.45
14,GGAUCUUCUCGAUCUAACAAAAAAGACAAAUCUGCCACAAAGCUUGAGAGCAUCUUCGGAUGCAGAGGCGGCAGCCUUCGGUGGCGCGAUAGCGCUAACGUUCUCAACUAUGACACGCAAAACGCGUGCUCCGUUGAAUGGAGUUGAUCAUG [C96U U146G],-1.29
15,GGAUCUUCUCGAUCUAACAAAAAAGACAAAUCUGCCACAAAGCUUGAGAGCAUCUUCGGAUGCAGAGGCGGCAGCCUUCGGUGGCGCGAUAGCGCUAACGUUCUCAACUAUGACACGCAAAACGCGUGCUCCGUUAAAUGGAGUUUAUCAUG [C96U G136A],0.246
16,GGAUCUUCUCGAUCUAACAAAAAAGACAAAUCUGCCACAAAGCUUGAGAGCAUCUUCGGAUGCAGAGGCGGCAGCCUUCGGUGGCGCGAUAGCGCUAACGUUCUCAACUAUGACACGCAAAACGCGUGCUCCGUUUAAUGGAGUUUAUCAUG [C96U G136U],-2.74
17,GGAUCUUCUCGAUCUAACAAAAAAGACAAAUCUGCCACAAAGCUUGAGAGCAUCUUCGGAUGCAGAGGCGGCAGCCUUCGGUGGCGCGAUAGCGCUAACGUUCUCAACUAUGACAUGCAAAACGCGUGCUCCGUUGAAUGGAGUUUAUCAUG [C96U C116U],-0.186
18,GGAUCUUCUCGAUCUAACAAAAAAGACAAAUCUGCCACAAAGCUUGAGAGCAUCUUCGGAUGCAGAGGCGGCAGCCUUCGGUGGCGCGAUAGCGCUAACGUUCUCAACUAUGACAGGCAAAACGCGUGCUCCGUUGAAUGGAGUUUAUCAUG [C96U C116G],0.963
19,GGAUCUUCUCGAUCUAACAAAAAAGACAAAUCUGCCACAAAGCUUGAGAGCAUCUUCGGAUGCAGAGGCGGCAGCCUUCGGUGGCGCGAUAGCGCUAACGUUCUCAACUAUGACACGCAAAACGCGUACGCCGUUGAAUGGAGUUUAUCAUG [C96U G128A U130G],≤ -4.2
